Results on two compounds are retold here after patent US8158376B2, “Bisubstrate fluorescent probe binding to protein kinases” (University of Tartu, priority 2006, dated 2012).

Read-outs that look alike come from different tables or passages of the source.

Holding throughout (experiment): Kinase selectivity panel
Common to all, as to type: biochemical

Data set [1] addresses JNK3 (Homo sapiens, UniProt P53779). Conditions: read-out: residual activity (%) JNK3. Here is the method:
(§1) The panel of kinases included all 52 kinases available for testing.
(§2) The assay of protein kinases was performed at 30° C. as described previously [Davies et al., Biochem. J. 351 (2000) 95; Murray et al., Biochem. J. 384 (2004) 477].

Data set [2] deals with CK2 (Homo sapiens, UniProt P68400). As to conditions: read-out: residual activity (%) CK2. How it is done:
as §1, §2

In data set [3] the target is CHK2 (Homo sapiens, UniProt O96017). Conditions: read-out: residual activity (%) CHK2. How it is done: as §1, §2
Data set [4] concerns the target NEK7 (Homo sapiens, UniProt Q8TDX7). Conditions: read-out: residual activity (%) NEK7. How it is done:
as §1, §2

The target of data set [5] is T1, eEF2K (Homo sapiens, UniProt O00418).
T1 sequence (O00418 1-725): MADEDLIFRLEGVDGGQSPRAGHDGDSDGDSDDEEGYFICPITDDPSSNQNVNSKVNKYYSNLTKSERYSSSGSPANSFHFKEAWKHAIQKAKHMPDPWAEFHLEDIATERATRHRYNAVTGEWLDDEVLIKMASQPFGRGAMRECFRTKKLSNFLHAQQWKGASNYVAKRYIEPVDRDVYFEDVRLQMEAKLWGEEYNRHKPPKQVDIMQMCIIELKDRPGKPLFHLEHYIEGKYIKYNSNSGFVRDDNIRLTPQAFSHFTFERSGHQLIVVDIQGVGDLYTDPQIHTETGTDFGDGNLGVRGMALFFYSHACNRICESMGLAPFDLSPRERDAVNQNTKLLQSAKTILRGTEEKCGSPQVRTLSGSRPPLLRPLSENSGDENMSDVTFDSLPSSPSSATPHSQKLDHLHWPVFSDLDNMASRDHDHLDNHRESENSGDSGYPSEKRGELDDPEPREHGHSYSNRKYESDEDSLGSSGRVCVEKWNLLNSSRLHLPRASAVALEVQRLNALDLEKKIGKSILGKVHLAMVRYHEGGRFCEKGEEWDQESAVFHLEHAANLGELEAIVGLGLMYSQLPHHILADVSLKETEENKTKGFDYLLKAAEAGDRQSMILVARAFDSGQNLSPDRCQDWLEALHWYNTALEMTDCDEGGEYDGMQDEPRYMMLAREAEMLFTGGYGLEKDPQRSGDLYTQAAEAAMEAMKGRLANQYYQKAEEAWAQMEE
As to conditions: read-out: residual activity (%) eEF2K. Here is the method: as §1, §2

The target in data set [6] is MAPKAP-K1b/rsk-2 (Homo sapiens, UniProt P51812). As to conditions: ATP 50 μM. Here is the method:
as §1, §2

The target of data set [7] is DYRK1a (Homo sapiens, UniProt Q13627). Conditions: read-out: residual activity (%) DYRK1a. How it is done: as §1, §2
Data set [8] concerns the target MKK1 (Homo sapiens, UniProt Q02750). Conditions: read-out: residual activity (%) MKK1. Here is the method:
as §1, §2

Data set [9] addresses CSK (Homo sapiens, UniProt P41240). Conditions: read-out: residual activity (%) CSK. How it is done:
as §1, §2

The target of data set [10] is Aurora B (Homo sapiens, UniProt Q96GD4). Conditions: read-out: residual activity (%) Aurora B. How it is done:
as §1, §2

The target of data set [11] is PKCa (Homo sapiens, UniProt P17252). Conditions: read-out: residual activity (%) PKCa. How it is done:
as §1, §2

The target in data set [12] is NEK6 (Homo sapiens, UniProt Q9HC98). As to conditions: read-out: residual activity (%) NEK6. How it is done:
as §1, §2

For data set [13], the target named is PRK2 (Homo sapiens, UniProt Q16513). As to conditions: read-out: residual activity (%) PRK2. Here is the method:
as §1, §2

Data set [14] deals with MAPKAP-K1a/rsk-1 (Homo sapiens, UniProt Q15418). Conditions: inhibitor 1 μM, ATP 50 μM. How it is done:
as §1, §2

Data set [15] deals with T2, IKKb (Homo sapiens, UniProt O14920).
T2 sequence (O14920 1-756): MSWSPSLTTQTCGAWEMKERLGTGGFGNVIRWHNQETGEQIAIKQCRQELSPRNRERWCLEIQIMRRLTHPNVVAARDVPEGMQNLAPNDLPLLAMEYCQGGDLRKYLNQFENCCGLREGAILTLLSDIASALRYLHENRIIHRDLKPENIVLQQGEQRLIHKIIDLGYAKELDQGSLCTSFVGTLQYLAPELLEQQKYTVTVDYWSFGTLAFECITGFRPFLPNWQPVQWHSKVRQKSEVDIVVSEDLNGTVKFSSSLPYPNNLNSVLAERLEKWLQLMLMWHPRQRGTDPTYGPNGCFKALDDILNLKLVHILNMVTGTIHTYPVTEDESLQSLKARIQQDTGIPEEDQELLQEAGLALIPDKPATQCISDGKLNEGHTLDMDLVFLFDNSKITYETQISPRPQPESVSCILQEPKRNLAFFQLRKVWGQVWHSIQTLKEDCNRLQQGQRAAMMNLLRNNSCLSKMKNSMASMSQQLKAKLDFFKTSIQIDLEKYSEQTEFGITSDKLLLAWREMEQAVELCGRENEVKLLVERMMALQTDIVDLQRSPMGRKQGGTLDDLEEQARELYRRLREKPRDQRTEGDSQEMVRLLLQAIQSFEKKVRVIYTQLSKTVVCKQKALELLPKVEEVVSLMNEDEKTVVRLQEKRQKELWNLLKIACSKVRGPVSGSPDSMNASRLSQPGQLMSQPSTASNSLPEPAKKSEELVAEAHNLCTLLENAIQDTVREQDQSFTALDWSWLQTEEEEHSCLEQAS
Conditions: read-out: residual activity (%) IKKb. Here is the method: as §1, §2

Sequence of MAPKAP-K1b/rsk-2 (P51812 whole entry): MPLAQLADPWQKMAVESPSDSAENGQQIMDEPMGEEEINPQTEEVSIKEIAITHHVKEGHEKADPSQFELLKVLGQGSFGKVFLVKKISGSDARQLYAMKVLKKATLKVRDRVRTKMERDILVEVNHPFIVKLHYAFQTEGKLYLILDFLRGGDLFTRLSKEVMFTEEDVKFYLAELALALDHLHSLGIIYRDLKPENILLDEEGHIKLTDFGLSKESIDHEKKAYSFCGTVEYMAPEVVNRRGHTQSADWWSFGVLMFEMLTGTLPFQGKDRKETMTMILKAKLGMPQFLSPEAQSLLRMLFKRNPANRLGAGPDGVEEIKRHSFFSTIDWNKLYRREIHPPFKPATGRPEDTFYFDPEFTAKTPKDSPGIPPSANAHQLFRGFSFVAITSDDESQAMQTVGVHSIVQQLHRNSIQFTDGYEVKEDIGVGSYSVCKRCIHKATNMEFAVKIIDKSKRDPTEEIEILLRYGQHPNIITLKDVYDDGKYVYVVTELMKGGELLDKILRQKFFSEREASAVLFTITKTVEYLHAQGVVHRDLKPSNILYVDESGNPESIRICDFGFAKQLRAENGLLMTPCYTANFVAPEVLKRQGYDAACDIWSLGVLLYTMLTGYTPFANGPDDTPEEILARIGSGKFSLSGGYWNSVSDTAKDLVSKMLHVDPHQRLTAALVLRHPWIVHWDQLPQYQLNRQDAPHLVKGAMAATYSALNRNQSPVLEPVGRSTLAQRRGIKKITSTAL
Sequence of Aurora B (Q96GD4 whole entry): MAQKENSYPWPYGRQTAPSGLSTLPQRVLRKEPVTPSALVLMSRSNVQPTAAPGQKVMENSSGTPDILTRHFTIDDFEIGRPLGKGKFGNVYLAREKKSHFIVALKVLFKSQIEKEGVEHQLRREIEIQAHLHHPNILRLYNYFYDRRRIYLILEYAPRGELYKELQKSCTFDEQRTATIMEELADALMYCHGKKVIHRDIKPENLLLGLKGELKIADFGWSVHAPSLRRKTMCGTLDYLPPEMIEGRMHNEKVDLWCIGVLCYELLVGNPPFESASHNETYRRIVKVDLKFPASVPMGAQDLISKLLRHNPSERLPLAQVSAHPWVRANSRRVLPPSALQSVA
Sequence of PRK2 (Q16513 whole entry, species assumed): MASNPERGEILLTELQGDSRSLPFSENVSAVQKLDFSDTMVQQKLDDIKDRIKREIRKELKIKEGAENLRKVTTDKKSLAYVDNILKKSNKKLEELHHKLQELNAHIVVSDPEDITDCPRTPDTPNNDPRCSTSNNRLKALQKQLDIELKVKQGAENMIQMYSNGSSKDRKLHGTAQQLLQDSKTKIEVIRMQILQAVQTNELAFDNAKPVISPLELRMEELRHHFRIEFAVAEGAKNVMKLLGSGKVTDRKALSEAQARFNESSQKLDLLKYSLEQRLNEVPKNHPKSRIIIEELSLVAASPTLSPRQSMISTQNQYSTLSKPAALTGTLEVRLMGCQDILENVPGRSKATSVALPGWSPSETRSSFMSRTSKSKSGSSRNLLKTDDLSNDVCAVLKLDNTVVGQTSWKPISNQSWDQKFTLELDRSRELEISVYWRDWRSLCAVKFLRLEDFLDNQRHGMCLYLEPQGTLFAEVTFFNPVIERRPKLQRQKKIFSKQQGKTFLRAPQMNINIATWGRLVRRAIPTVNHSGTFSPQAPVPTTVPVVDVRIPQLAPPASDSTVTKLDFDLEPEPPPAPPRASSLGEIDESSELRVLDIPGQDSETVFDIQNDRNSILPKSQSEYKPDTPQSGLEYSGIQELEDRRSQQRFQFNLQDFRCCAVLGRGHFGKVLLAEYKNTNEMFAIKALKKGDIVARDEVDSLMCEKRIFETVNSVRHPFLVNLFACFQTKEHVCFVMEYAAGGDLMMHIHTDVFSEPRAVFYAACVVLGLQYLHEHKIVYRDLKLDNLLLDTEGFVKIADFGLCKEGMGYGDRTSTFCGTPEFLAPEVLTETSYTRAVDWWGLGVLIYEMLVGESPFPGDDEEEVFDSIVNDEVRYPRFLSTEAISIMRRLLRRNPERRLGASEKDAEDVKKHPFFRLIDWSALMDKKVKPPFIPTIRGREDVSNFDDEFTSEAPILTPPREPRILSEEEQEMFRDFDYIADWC
Sequence of NEK6 (Q9HC98 whole entry, species assumed): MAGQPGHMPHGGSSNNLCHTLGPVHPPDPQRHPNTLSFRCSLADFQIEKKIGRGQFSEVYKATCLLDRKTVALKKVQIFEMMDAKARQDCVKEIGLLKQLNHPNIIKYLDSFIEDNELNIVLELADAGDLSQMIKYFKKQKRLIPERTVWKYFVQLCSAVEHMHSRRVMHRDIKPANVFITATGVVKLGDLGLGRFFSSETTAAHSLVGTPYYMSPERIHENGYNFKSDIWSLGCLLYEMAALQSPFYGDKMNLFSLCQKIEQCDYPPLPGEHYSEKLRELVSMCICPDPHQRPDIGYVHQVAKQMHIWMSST
Sequence of CK2 (P68400 whole entry): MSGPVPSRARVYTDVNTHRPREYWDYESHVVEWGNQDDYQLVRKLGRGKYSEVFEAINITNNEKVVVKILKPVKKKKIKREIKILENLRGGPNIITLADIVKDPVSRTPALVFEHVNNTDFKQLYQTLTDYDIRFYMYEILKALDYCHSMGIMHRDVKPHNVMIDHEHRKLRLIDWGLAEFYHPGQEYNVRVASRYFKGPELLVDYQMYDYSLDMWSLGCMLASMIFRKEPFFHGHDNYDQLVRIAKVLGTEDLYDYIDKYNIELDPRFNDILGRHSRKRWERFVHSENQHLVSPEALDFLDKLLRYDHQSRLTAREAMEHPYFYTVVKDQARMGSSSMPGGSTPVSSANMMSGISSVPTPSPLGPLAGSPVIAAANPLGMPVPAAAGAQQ
Sequence of NEK7 (Q8TDX7 whole entry, species assumed): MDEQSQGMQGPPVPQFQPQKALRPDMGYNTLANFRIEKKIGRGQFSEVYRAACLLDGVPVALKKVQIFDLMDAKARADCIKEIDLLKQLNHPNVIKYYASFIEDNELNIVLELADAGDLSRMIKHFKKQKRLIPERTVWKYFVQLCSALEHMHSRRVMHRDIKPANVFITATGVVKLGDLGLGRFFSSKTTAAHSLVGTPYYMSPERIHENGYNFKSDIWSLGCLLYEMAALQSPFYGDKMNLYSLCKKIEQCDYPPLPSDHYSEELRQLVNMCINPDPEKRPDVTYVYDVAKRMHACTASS
Sequence of CSK (P41240 whole entry, species assumed): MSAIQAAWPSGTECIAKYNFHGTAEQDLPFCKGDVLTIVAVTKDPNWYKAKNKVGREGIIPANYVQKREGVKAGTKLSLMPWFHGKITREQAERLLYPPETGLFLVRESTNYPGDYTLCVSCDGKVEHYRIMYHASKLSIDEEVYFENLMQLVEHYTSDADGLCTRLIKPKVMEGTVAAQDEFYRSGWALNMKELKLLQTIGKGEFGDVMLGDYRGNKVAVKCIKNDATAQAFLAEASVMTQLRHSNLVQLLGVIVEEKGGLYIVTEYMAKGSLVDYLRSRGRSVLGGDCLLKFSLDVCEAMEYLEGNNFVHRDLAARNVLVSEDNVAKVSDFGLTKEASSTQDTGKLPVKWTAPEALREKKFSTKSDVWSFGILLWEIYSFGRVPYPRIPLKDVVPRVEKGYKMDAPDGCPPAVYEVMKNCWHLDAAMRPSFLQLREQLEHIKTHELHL
Sequence of MKK1 (Q02750 whole entry, species assumed): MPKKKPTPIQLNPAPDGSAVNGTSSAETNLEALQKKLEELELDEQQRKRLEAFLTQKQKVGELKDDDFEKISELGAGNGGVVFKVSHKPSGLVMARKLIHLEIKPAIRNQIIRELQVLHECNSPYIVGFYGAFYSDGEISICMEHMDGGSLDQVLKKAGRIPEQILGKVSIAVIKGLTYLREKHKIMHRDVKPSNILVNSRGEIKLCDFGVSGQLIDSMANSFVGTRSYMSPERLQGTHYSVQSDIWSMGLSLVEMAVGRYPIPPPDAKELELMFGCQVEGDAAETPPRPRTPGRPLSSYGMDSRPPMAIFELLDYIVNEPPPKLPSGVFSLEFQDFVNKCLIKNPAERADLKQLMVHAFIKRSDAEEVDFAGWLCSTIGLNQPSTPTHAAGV
Sequence of MAPKAP-K1a/rsk-1 (Q15418 whole entry): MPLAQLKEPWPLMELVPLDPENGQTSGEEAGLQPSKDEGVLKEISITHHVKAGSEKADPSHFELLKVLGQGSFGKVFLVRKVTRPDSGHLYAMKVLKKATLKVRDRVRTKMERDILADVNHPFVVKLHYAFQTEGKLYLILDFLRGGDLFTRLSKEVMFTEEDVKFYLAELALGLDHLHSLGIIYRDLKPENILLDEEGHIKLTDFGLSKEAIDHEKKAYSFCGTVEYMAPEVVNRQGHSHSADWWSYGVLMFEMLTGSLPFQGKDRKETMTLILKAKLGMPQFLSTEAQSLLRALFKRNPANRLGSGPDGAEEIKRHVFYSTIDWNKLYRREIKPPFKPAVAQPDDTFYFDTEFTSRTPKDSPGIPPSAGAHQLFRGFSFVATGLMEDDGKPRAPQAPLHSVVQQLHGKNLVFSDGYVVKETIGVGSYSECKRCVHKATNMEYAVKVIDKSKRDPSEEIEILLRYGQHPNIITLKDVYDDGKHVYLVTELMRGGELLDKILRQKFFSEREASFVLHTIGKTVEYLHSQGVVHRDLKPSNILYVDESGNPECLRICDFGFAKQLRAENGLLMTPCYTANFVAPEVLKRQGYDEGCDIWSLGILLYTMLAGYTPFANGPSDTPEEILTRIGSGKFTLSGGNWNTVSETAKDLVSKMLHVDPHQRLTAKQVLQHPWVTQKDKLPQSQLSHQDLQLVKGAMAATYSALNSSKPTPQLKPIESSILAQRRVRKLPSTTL

For the compound `N=C(N)NCCC[C@@H](NC(=O)[C@@H](CCCNC(=N)N)NC(=O)[C@@H](CCCNC(=N)N)NC(=O)[C@@H](CCCNC(=N)N)NC(=O)[C@@H](CCCNC(=N)N)NC(=O)[C@@H](CCCNC(=N)N)NC(=O)CCCCCNCCNS(=O)(=O)c1cccc2cnccc12)C(N)=O` [Compound 26, H9-Hex(D-Arg)6-NH2], the remaining activity at 1 µM in data set [1] (inhibitor 1 μM, ATP 50 μM) was determined as 92%; in [2] (inhibitor 1 μM, ATP 5 μM) it was 87%; in [3] (inhibitor 1 μM, ATP 20 μM), 22%; in [4] (inhibitor 1 μM, ATP 20 μM), 56%; in data set [5] (inhibitor 1 μM, ATP 5 μM), 91%; in data set [6] (inhibitor 1 μM, read-out: residual activity (%) MAPKAP-K1b/rsk-2) it was 2%. Besides, the remaining activity at 1 µM was determined as 69% in data set [7] (inhibitor 1 μM, ATP 50 μM); 84% in data set [8] (inhibitor 1 μM, ATP 5 μM); 70% in data set [9] (inhibitor 1 μM, ATP 20 μM); 53% in data set [10] (inhibitor 1 μM, ATP 20 μM); 15% in data set [11] (inhibitor 1 μM, ATP 20 μM); 100% in data set [12] (inhibitor 1 μM, ATP 50 μM). Further, the remaining activity at 1 µM in [13] (inhibitor 1 μM, ATP 5 μM) worked out at 2%; in [14] (read-out: residual activity (%) MAPKAP-K1a/rsk-1), 0%; in data set [15] (inhibitor 1 μM, ATP 5 μM) it was 87%.

As for `N=C(N)NCCC[C@@H](NC(=O)[C@@H](CCCNC(=N)N)NC(=O)[C@@H](CCCNC(=N)N)NC(=O)[C@@H](CCCNC(=N)N)NC(=O)[C@@H](CCCNC(=N)N)NC(=O)[C@@H](CCCNC(=N)N)NC(=O)CCCCCNC(=O)[C@H]1O[C@@H](n2cnc3c(N)ncnc32)[C@H](O)[C@@H]1O)C(N)=O` [Compound 5, AdcAhx(D-Arg)6-NH2], the remaining activity at 1 µM in [1] was 91%; in data set [2] it was 104%; in data set [3] it was 14%; in [4], 58%; in [5], 92%; in data set [6] (read-out: residual activity (%) MAPKAP-K1b/rsk-2, inhibitor 1 μM), 7 to 28%. Also, the remaining activity at 1 µM in data set [7] came out at 72%; in data set [8], 77%; in data set [9] it was 48%; in [10], 103%; in data set [11] it was 31%; in data set [12] it was 94%. Also, the remaining activity at 1 µM was 2% in [13] and 94% in [15]. For the same compound, the “residual activity (%) MAPKAP-K1b/rsk-2” value in data set [6] (inhibitor 1 μM) is on record as 12 (±0) %. For the same compound, the “residual activity (%) MAPKAP-K1a/rsk-1” value in data set [14] was 28 (±7) %.
